Test results from patent US5849885.

Target: casein fraction of whole cow milk
Experiment: competitive inhibition RIA of bLF in the casein pellet after centrifugation of whole cow milk, no addition (mean + SD, n=10); the same table gives 4 with +0.4M NaCl and 32 after acid precipitation

% of total bLF found in the casein fraction: 21%
Substance: bovine lactoferrin (from UniProt P24627)
